Data on two molecules can be found in paper PMC5751438 (Cell, 2017).

B1: Cdc48 ATPase (wild type, untagged) (enzyme, S. cerevisiae, UniProt P25694 1-835, looked up)
chain: MGEEHKPLLDASGVDPREEDKTATAILRRKKKDNMLLVDDAINDDNSVIAINSNTMDKLELFRGDTVLVKGKKRKDTVLIVLIDDELEDGACRINRVVRNNLRIRLGDLVTIHPCPDIKYATRISVLPIADTIEGITGNLFDVFLKPYFVEAYRPVRKGDHFVVRGGMRQVEFKVVDVEPEEYAVVAQDTIIHWEGEPINREDEENNMNEVGYDDIGGCRKQMAQIREMVELPLRHPQLFKAIGIKPPRGVLMYGPPGTGKTLMARAVANETGAFFFLINGPEVMSKMAGESESNLRKAFEEAEKNAPAIIFIDEIDSIAPKRDKTNGEVERRVVSQLLTLMDGMKARSNVVVIAATNRPNSIDPALRRFGRFDREVDIGIPDATGRLEVLRIHTKNMKLADDVDLEALAAETHGYVGADIASLCSEAAMQQIREKMDLIDLDEDEIDAEVLDSLGVTMDNFRFALGNSNPSALRETVVESVNVTWDDVGGLDEIKEELKETVEYPVLHPDQYTKFGLSPSKGVLFYGPPGTGKTLLAKAVATEVSANFISVKGPELLSMWYGESESNIRDIFDKARAAAPTVVFLDELDSIAKARGGSLGDAGGASDRVVNQLLTEMDGMNAKKNVFVIGATNRPDQIDPAILRPGRLDQLIYVPLPDENARLSILNAQLRKTPLEPGLELTAIAKATQGFSGADLLYIVQRAAKYAIKDSIEAHRQHEAEKEVKVEGEDVEMTDEGAKAEQEPEVDPVPYITKEHFAEAMKTAKRSVSDAELRRYEAYSQQMKASRGQFSNFNFNDAPLGTTATDNANSNNSAPSGAGAAFGSNAEEDDDLYS

Assay [1] concerns the target T1, SBP-tagged Ufd1/Npl4 heterodimer (SBP tag on Ufd1) (S. cerevisiae, UniProt P53044 1-361; P33755 1-580).
T1 sequence (looked up) 1: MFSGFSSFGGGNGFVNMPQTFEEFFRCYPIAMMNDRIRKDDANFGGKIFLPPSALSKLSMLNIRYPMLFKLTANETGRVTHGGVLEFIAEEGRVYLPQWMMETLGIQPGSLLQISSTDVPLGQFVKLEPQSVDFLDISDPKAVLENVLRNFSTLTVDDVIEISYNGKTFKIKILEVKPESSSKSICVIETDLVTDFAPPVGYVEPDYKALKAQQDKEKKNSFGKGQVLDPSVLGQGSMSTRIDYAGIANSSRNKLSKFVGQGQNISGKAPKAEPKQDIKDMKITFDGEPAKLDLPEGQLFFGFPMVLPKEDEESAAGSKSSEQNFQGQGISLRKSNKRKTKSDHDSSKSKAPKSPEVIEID
T1 sequence (looked up) 2: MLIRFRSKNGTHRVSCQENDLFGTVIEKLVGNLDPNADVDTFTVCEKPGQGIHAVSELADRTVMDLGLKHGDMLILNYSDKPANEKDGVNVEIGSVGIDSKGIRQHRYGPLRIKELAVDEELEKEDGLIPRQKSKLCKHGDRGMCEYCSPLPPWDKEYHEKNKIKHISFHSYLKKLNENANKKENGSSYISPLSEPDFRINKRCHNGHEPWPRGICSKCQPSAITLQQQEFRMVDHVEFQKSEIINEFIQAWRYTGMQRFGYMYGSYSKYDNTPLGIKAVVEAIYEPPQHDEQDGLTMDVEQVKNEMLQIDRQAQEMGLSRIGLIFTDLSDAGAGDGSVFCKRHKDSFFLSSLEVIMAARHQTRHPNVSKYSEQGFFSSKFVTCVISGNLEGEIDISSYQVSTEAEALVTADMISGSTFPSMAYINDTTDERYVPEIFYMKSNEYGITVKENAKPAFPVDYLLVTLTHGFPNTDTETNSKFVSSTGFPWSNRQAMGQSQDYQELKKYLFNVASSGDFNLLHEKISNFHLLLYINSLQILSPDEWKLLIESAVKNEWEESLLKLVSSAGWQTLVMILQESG
Put plainly: pull-down.

The target of assay [2] is B1. Put plainly: pull-down.

Consider B1, for which the binding result in assay [1] is “binds”.

B2: Otu1 (wild type) (enzyme, UniProt P43558 1-301, looked up)
chain: MKLKVTGAGINQVVTLKQDATLNDLIEHINVDVKTMRFGYPPQRINLQGEDASLGQTQLDELGINSGEKITIESSDSNESFSLPPPQPKPKRVLKSTEMSIGGSGENVLSVHPVLDDNSCLFHAIAYGIFKQDSVRDLREMVSKEVLNNPVKFNDAILDKPNKDYAQWILKMESWGGAIEIGIISDALAVAIYVVDIDAVKIEKFNEDKFDNYILILFNGIHYDSLTMNEFKTVFNKNQPESDDVLTAALQLASNLKQTGYSFNTHKAQIKCNTCQMTFVGEREVARHAESTGHVDFGQNR
As to B2, the binding result in assay [2] is given as “binds”.
